Details in all cases: both partners purified
One assay concerns the target T1, Mcm3 (HA-tagged) (S. cerevisiae, UniProt P24279 1-971).
T1 construct: Mcm3, S. cerevisiae; subunit of the MCM2-7 hexamer; bait of the anti-HA bead pulldowns; source: S. cerevisiae, galactose-induced, purified as a subunit of MCM2-7 (anti-HA beads, HA peptide, gel filtration)
Put plainly: pull-down; 150 nM MCM2-7 alone in pre-RC buffer, bound to anti-HA magnetic beads by the HA-tag on Mcm3, low salt wash (pre-RC buffer), HA peptide elution, silver stain.

In a further assay the target is T2, Mcm4 (S. cerevisiae, UniProt P30665 1-933).
T2 construct: Mcm4, S. cerevisiae; subunit of the MCM2-7 hexamer; source: S. cerevisiae, galactose-induced, purified as a subunit of MCM2-7 (anti-HA beads, HA peptide, gel filtration)
T2 sequence: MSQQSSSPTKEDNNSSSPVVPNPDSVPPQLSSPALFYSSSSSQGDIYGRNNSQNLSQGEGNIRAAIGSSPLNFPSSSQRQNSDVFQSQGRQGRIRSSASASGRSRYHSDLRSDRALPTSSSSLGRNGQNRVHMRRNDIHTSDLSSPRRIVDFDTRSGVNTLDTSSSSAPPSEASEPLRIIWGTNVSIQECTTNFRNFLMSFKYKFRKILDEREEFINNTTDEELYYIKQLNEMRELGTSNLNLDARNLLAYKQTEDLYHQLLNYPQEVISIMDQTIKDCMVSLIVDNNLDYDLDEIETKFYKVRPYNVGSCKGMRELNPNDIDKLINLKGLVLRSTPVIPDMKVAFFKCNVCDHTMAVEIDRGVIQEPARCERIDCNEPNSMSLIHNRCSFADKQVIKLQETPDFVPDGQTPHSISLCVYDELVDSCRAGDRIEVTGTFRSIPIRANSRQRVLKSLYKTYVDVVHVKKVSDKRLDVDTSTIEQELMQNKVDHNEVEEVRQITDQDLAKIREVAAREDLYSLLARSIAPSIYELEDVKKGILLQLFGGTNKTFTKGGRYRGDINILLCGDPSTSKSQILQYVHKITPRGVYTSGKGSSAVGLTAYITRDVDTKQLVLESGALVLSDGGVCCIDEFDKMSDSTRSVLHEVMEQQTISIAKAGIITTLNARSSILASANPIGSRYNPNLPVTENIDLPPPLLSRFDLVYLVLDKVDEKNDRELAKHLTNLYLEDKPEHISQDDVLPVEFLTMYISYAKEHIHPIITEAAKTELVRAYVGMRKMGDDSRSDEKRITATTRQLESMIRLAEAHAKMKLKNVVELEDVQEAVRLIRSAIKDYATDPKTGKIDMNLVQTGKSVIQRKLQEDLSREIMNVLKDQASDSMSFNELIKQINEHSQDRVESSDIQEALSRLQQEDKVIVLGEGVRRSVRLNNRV
Put plainly: cryo-EM structure; closed-gate OCCM (ORC-Cdc6-Cdt1-MCM2-7) on ARS1 DNA with ATPγS; focused 3D classification of the particles of ref. 13; about 10% of the particles; 6.1 Å.

Another assay deals with T3, Mcm5 (S. cerevisiae, UniProt P29496 1-775).
T3 construct: Mcm5, S. cerevisiae; subunit of the MCM2-7 hexamer; source: S. cerevisiae, galactose-induced, purified as a subunit of MCM2-7 (anti-HA beads, HA peptide, gel filtration)
T3 sequence: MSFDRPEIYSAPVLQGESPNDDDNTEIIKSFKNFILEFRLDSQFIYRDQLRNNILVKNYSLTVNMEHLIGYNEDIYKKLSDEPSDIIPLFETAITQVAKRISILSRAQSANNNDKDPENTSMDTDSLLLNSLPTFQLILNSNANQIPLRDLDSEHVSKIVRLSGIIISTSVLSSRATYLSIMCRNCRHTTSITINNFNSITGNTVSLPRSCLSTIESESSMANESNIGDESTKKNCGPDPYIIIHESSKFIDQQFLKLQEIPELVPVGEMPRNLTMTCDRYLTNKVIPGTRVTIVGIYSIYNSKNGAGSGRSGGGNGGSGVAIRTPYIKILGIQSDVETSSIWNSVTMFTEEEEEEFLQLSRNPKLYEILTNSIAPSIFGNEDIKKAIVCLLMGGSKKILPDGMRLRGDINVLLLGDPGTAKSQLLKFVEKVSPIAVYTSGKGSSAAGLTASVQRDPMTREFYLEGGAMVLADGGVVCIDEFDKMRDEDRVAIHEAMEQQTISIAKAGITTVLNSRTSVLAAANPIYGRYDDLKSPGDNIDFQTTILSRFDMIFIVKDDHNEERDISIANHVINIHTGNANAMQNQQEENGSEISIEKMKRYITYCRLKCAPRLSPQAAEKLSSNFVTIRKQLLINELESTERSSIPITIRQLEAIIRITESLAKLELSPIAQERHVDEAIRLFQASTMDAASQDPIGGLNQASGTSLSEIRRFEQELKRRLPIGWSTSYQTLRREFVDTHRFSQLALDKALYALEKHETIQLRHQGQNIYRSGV
The assay is described as above.

A further assay has as its target T4, MCM2-7 (wild type) (S. cerevisiae, UniProt P29469 1-868; P24279 1-971; P30665 1-933; P29496 1-775; P53091 1-1017; P38132 …).
T4 construct: Mcm2, S. cerevisiae; Mcm3, S. cerevisiae; Mcm4, S. cerevisiae; Mcm5, S. cerevisiae; Mcm6, S. cerevisiae; Mcm7, S. cerevisiae; hetero-hexamer; plasmids and strains are in Supplementary Data 1; also called WT MCM2-7; copies: + + + + +
Put plainly: pull-down; pre-RC pulldown: 150 nM ORC, 300 nM Cdc6, 150 nM Cdt1, 150 nM MCM2-7 and 200 nM 290 bp ARS1 DNA in solution, anti-HA beads (HA-Mcm3), low salt wash, HA peptide elution.

For the next assay, the target named is T5, MCM2-7-ΔC5 (S. cerevisiae, UniProt P29469 1-868; P24279 1-971; P30665 1-933; P29496 1-692; P53091 1-1017; P38132 …).
T5 construct: Mcm2, S. cerevisiae; Mcm3, S. cerevisiae; Mcm4, S. cerevisiae; Mcm5, S. cerevisiae, deletion of residues 693-775 (C-terminal extension C5: linker and WHD); Mcm6, S. cerevisiae; Mcm7, S. cerevisiae; also called mcm5 (Δ693-775); copies: + + + + +
T5 sequence (P29469 whole entry, stated change not applied, chain 1 of 3, the tested form may be a part): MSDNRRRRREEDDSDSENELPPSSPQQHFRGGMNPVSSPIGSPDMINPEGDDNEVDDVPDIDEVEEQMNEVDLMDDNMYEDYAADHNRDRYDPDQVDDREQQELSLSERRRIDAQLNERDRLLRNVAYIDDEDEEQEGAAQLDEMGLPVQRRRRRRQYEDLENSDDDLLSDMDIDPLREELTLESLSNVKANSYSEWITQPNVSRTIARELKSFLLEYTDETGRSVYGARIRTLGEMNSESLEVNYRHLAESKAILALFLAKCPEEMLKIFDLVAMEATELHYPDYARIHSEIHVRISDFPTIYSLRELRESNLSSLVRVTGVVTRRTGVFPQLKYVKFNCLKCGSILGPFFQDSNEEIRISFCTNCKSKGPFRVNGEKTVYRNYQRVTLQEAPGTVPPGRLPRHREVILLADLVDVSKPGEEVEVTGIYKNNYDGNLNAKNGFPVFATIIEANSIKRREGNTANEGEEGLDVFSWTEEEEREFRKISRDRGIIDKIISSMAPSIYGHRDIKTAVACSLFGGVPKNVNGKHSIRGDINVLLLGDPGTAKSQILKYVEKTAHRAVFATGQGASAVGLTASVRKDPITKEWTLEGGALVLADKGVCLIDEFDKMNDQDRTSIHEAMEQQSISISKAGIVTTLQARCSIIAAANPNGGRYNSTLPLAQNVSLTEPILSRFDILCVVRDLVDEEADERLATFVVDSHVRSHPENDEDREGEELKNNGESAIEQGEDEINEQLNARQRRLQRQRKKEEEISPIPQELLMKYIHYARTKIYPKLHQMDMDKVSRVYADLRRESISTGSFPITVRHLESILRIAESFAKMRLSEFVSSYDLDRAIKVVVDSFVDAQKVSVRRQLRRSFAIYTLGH
T5 sequence (P24279 whole entry, stated change not applied, chain 2 of 3, the tested form may be a part): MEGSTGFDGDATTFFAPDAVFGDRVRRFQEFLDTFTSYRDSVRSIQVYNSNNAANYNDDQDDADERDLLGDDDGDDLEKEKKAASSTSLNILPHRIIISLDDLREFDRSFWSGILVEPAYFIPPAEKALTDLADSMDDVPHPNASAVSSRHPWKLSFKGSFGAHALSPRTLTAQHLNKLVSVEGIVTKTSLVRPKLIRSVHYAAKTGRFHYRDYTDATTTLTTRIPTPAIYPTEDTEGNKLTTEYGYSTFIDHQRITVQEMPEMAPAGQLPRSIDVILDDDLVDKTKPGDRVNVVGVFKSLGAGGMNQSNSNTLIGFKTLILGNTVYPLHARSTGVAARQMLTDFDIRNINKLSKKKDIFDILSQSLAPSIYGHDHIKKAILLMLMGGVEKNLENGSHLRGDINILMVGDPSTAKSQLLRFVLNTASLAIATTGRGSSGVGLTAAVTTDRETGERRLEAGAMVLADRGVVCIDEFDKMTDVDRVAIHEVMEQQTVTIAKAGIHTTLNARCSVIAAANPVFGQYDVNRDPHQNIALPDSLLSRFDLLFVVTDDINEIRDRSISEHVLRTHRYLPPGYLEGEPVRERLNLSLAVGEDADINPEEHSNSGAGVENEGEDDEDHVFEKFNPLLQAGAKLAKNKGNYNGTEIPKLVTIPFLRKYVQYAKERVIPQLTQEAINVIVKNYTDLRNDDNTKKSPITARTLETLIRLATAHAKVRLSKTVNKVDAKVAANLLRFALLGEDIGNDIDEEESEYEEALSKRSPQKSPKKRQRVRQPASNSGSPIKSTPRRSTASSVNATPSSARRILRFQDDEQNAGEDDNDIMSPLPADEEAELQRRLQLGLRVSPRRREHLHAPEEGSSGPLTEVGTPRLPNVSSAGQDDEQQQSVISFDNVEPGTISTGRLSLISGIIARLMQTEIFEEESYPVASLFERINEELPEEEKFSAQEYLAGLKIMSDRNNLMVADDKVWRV
T5 sequence (P53091 whole entry, stated change not applied, chain 5 of 3, the tested form may be a part): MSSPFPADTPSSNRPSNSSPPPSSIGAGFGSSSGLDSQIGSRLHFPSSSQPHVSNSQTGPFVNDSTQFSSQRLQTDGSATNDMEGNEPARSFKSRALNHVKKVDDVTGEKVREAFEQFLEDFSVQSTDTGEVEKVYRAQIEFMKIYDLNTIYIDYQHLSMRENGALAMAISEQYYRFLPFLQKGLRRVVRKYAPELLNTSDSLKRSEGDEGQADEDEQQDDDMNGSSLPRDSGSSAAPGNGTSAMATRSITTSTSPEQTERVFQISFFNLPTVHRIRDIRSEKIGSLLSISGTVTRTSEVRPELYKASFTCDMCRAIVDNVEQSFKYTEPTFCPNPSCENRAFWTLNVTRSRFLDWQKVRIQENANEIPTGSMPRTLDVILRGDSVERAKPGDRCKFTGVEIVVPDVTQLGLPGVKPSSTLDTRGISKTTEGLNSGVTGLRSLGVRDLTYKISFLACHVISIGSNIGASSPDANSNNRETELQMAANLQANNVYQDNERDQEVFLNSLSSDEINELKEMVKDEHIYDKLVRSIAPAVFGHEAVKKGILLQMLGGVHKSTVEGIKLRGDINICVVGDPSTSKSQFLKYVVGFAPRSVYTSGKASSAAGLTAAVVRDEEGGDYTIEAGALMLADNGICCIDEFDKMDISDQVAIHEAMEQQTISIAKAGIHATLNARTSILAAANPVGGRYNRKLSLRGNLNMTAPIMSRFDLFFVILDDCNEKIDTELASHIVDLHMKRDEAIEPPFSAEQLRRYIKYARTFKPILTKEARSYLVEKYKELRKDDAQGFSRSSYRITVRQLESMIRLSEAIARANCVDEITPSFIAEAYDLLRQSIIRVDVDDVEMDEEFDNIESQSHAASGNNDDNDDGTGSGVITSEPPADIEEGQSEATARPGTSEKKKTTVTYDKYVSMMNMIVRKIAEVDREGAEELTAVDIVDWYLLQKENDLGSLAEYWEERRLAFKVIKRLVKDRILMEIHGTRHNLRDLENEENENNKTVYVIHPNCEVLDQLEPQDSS
Described as above.

Assay [1] concerns the target T6, Origin Recognition Complex (ORC) (UniProt P54784 1-914; P32833 1-620; P54790 1-616; P54791 1-529; P50874 1-479; P38826 …).
T6 construct: Orc1; Orc2; Orc3; Orc4; Orc5; Orc6; in all assays ORC stood with ARS1 DNA; source: Hi-5 cells, baculovirus (Orc1,6; Orc2,5; Orc3,4), purified (ammonium sulphate, SP Sepharose, Mono Q, Superdex 200); copies: + + + + +
Put plainly: cryo-EM structure; closed-gate OCCM (ORC-Cdc6-Cdt1-MCM2-7) on ARS1 DNA with ATPγS; focused 3D classification of the particles of ref. 13; about 10% of the particles; 6.1 Å.

T1 sequence (P24279 whole entry): as the sequence (P24279 whole entry, stated change not applied, chain 2 of 3, the tested form may be a part) above
T4 sequence (P29469 whole entry, chain 1 of 3): as the sequence (P29469 whole entry, stated change not applied, chain 1 of 3, the tested form may be a part) above
T4 sequence (P24279 whole entry, chain 2 of 3): as the sequence (P24279 whole entry, stated change not applied, chain 2 of 3, the tested form may be a part) above
T4 sequence (P53091 whole entry, chain 5 of 3): as the sequence (P53091 whole entry, stated change not applied, chain 5 of 3, the tested form may be a part) above

B1: Mcm7 (natural protein, S. cerevisiae)
chain: MSAALPSIQLPVDYNNLFNEITDFLVTFKQDTLSSDATRNENEDENLDAENIEQHLLEKGPKYMAMLQKVANRELNSVIIDLDDILQYQNEKFLQGTQADDLVSAIQQNANHFTELFCRAIDNNMPLPTKEIDYKDDVLDVILNQRRLRNERMLSDRTNEIRSENLMDTTMDPPSSMNDALREVVEDETELFPPNLTRRYFLYFKPLSQNCARRYRKKAISSKPLSVRQIKGDFLGQLITVRGIITRVSDVKPAVEVIAYTCDQCGYEVFQEVNSRTFTPLSECTSEECSQNQTKGQLFMSTRASKFSAFQECKIQELSQQVPVGHIPRSLNIHVNGTLVRSLSPGDIVDVTGIFLPAPYTGFKALKAGLLTETYLEAQFVRQHKKKFASFSLTSDVEERVMELITSGDVYNRLAKSIAPEIYGNLDVKKALLLLLVGGVDKRVGDGMKIRGDINVCLMGDPGVAKSQLLKAICKISPRGVYTTGKGSSGVGLTAAVMKDPVTDEMILEGGALVLADNGICCIDEFDKMDESDRTAIHEVMEQQTISISKAGINTTLNARTSILAAANPLYGRYNPRLSPLDNINLPAALLSRFDILFLMLDIPSRDDDEKLAEHVTYVHMHNKQPDLDFTPVEPSKMREYIAYAKTKRPVMSEAVNDYVVQAYIRLRQDSKREMDSKFSFGQATPRTLLGIIRLSQALAKLRLADMVDIDDVEEALRLVRVSKESLYQETNKSKEDESPTTKIFTIIKKMLQETGKNTLSYENIVKTVRLRGFTMLQLSNCIQEYSYLNVWHLINEGNTLKFVDDGTMDTDQEDSLVSTPKLAPQTTASANVSAQDSDIDLQDA
notes: Mcm7, S. cerevisiae; subunit of the MCM2-7 hexamer; source: S. cerevisiae, galactose-induced, purified as a subunit of MCM2-7 (anti-HA beads, HA peptide, gel filtration)
For B1, the binding result in the assay with Mcm3 (HA-tagged) and with Mcm4 was “binds” each time.

B2: Mcm5 lacking its C-terminus (subunit of MCM2-7-ΔC5) (domain or fragment, S. cerevisiae, UniProt P29496 1-692, looked up)
chain: MSFDRPEIYSAPVLQGESPNDDDNTEIIKSFKNFILEFRLDSQFIYRDQLRNNILVKNYSLTVNMEHLIGYNEDIYKKLSDEPSDIIPLFETAITQVAKRISILSRAQSANNNDKDPENTSMDTDSLLLNSLPTFQLILNSNANQIPLRDLDSEHVSKIVRLSGIIISTSVLSSRATYLSIMCRNCRHTTSITINNFNSITGNTVSLPRSCLSTIESESSMANESNIGDESTKKNCGPDPYIIIHESSKFIDQQFLKLQEIPELVPVGEMPRNLTMTCDRYLTNKVIPGTRVTIVGIYSIYNSKNGAGSGRSGGGNGGSGVAIRTPYIKILGIQSDVETSSIWNSVTMFTEEEEEEFLQLSRNPKLYEILTNSIAPSIFGNEDIKKAIVCLLMGGSKKILPDGMRLRGDINVLLLGDPGTAKSQLLKFVEKVSPIAVYTSGKGSSAAGLTASVQRDPMTREFYLEGGAMVLADGGVVCIDEFDKMRDEDRVAIHEAMEQQTISIAKAGITTVLNSRTSVLAAANPIYGRYDDLKSPGDNIDFQTTILSRFDMIFIVKDDHNEERDISIANHVINIHTGNANAMQNQQEENGSEISIEKMKRYITYCRLKCAPRLSPQAAEKLSSNFVTIRKQLLINELESTERSSIPITIRQLEAIIRITESLAKLELSPIAQERHVDEAIRLFQASTMDAA
notes: Mcm5, S. cerevisiae, deletion of residues 693-775 (C5); also called mcm5ΔC5; mcm5 (Δ693-775); source: S. cerevisiae, galactose-induced, purified as a subunit of MCM2-7-ΔC5 (anti-HA beads, HA peptide, gel filtration)
As to B2, the binding result with Mcm3 (HA-tagged) was “binds”.

B3: Orc3 (natural protein)
chain: MSDLNQSKKMNVSEFADAQRSHYTVYPSLPQSNKNDKHIPFVKLLSGKESEVNVEKRWELYHQLHSHFHDQVDHIIDNIEADLKAEISDLLYSETTQKRRCFNTIFLLGSDSTTKIELKDESSRYNVLIELTPKESPNVRMMLRRSMYKLYSAADAEEHPTIKYEDINDEDGDFTEQNNDVSYDLSLVENFKRLFGKDLAMVFNFKDVDSINFNTLDNFIILLKSAFKYDHVKISLIFNINTNLSNIEKNLRQSTIRLLKRNYHKLDVSSNKGFKYGNQIFQSFLDTVDGKLNLSDRFVEFILSKMANNTNHNLQLLTKMLDYSLMSYFFQNAFSVFIDPVNVDFLNDDYLKILSRCPTFMFFVEGLIKQHAPADEILSLLTNKNRGLEEFFVEFLVRENPINGHAKFVARFLEEELNITNFNLIELYHNLLIGKLDSYLDRWSACKEYKDRLHFEPIDTIFQELFTLDNRSGLLTQSIFPSYKSNIEDNLLSWEQVLPSLDKENYDTLSGDLDKIMAPVLGQLFKLYREANMTINIYDFYIAFRETLPKEEILNFIRKDPSNTKLLELAETPDAFDKVALILFMQAIFAFENMGLIKFQSTKSYDLVEKCVWRGI
notes: Orc3; subunit of ORC; source: Hi-5 cells, baculovirus, purified as a subunit of ORC
For B3, in the assay with Mcm5, the binding result is recorded as “binds”.

B4: Cdc6 (natural protein)
chain: MSAIPITPTKRIRRNLFDDAPATPPRPLKRKKLQFTDVTPESSPEKLQFGSQSIFLRTKALLQKSSELVNLNSSDGALPARTAEYEQVMNFLAKAISEHRSDSLYITGPPGTGKTAQLDMIIRQKFQSLPLSLSTPRSKDVLRHTNPNLQNLSWFELPDGRLESVAVTSINCISLGEPSSIFQKIFDSFQDLNGPTLQIKNMQHLQKFLEPYHKKTTFVVVLDEMDRLLHANTSETQSVRTILELFLLAKLPTVSFVLIGMANSLDMKDRFLSRLNLDRGLLPQTIVFQPYTAEQMYEIVIQKMSSLPTIIFQPMAIKFAAKKCAGNTGDLRKLFDVLRGSIEIYELEKRFLLSPTRGSLNSAQVPLTPTTSPVKKSYPEPQGKIGLNYIAKVFSKFVNNNSTRTRIAKLNIQQKLILCTIIQSLKLNSDATIDESFDHYIKAITKTDTLAPLQRNEFLEICTILETCGLVSIKKTKCKGKTKRFVDKIDVDLDMREFYDEMTKISILKPFLH
notes: Cdc6; also called WT Cdc6; source: E. coli BL21 codon-plus, purified (glutathione-agarose, PreScission Protease, hydroxyapatite)
For B4, the binding result (in the assay with MCM2-7 (wild type); in the assay with MCM2-7-ΔC5; in assay [1]) was “binds” throughout.

The values are drawn from paper PMC11695723, “MCM2-7 ring closure involves the Mcm5 C-terminus and triggers Mcm4 ATP hydrolysis” (Nature Communications, 2025).
